Test results: the nanobody polyreactivity screen of Harvey et al. (2022)

Assay: yeast display, Sf9 membrane polyspecificity reagent, FACS + sequencing; frameworks hold sequencing errors
Summary of the method: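 Galactose induction of a Saccharomyces cerevisiae BJ5465 synthetic nanobody display library ran 36–48 hours. The cells were then stained for 1 hour at 4 °C with 10% biotinylated, detergent-solubilized Sf9 membrane reagent, pulled down on streptavidin microbeads and FACS-sorted into low and high (top ~1%) gates on expression and reagent-binding fluorescence. Labels for polyreactivity follow the gate of origin.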

Sequence: QVQIVESGGRLVQAGGSLRLSCAASGNIFRYNAMGWYRQAPGKERELVAAITLSGGDTYYADSVKGRFTISRDNAKNIVYLQMNSLKPEDTAVYYCAKDPRSDYTDGMNYWGQGTQLTVSS
- polyreactivity (PSR sort gate): low polyreactivity

Sequence: QVQLVESGGVLVQAGGSLRLSCAASGRTFNLIAMGWYRQAPGKERELVAAISRSGGSTYYADSEKGRFTISRDNAKNTVYLQMNSLNPEETAVYYCNASALGRPYYRGSYFVFQGYEYWGLGTQVTVSS
- polyreactivity (PSR sort gate): low polyreactivity

Sequence: QVQLVESGGGLVQAGGSLRLSCAASGRIFTIYAMGWYRQAPGKERELVAAISDRGTRTYYADSVKGRFTISRDNAKNTVYLQMNSLKPEDSEVYYCATDALYTYGYDYWGQGTQVTVSS
- polyreactivity (PSR sort gate): low polyreactivity

Sequence: QVQLVESGGGLVQAGGSLRLSCGASGNIFTRNAMGWSRQAPGKERECVAAITESGASTYYADSVKGRFTISRDNAKNTVYLQMNSLKPEDTAVYYCNARLSRWRRRPYDYWGQGTQVTVSS
- polyreactivity (PSR sort gate): high polyreactivity

Sequence: QVQLVESGGGLVQAGGSLRLSCAASGRIFGRNAMGWYRPAPGKERELVAAITSGGSTNYADSVKGRFTISRDNAKNTVYLQMNSLKPEDAAVYYCAARRVIYVRLDYDYWGQGTQVTVSS
- polyreactivity (PSR sort gate): high polyreactivity

Sequence: QVQLVESGGGLVQAGGSLRLSCAASGFTFWYYAMGWYRQAPGKERELVAAISWSGGSTSYADSVKGRFTISRDNAKNTVYLQMNSLKREDTAVYYCAASDYYYYSWRPGDTWYEYWGQGTQVSVSS
- polyreactivity (PSR sort gate): high polyreactivity

Sequence: QVQLVESGGGLVQAGGSLRLSCAASGSIFHYYAMGWYRQAPGKERELVAAISWSGGRTNYADSVKGRFTISRDNAKNTVYLQMNSLKPEDTAVYYCAAAERSYSGGGKIGKYYYWGQGTQVTVSS
- polyreactivity (PSR sort gate): high polyreactivity

Sequence: QVQLVESGGGLVQAGGSLRLSCAASGRIFQNYAAMGRYRPPPGKERELVASIRATGGSTYYADSVKGRFTISRDNAKNTVYLQMNSLKPEDTAVYYCAARFAAKSLPAYDYWGQGTQVTVSS
- polyreactivity (PSR sort gate): low polyreactivity

Sequence: QVQLVESGGGLVQAGGSLRLSCAASGRTFEYYAMGWYRQAPGKERELVAAIDSGGSTNYADSVKGRFTISRDNAKNTVYLQMNSLKPEDTAVYYCATEVDQNYNYDYWGQGTQVTVSS
- polyreactivity (PSR sort gate): low polyreactivity

Sequence: QVQLVESGGGLVQAGGSLRLSCAASGSTFYRYAMGWYRQAPGKERELVAAIRGSGGRTYYADSVKGRFTISRDNAKNTVYLQMNSLKPEDTAVYYCAAYRGVSQKGDYWGEGTQVTVSS
- polyreactivity (PSR sort gate): high polyreactivity

Sequence: QVQLVESGGGLVQAGGSLRLSCAASGSTFGGYVMGWYRQAPGKERELVAAIRRVGRTYYADSVKGRFTISRDNAKNTVYLQMNSLKPEDTAVYYCAKDNWVNYDDSHDSWGQGTQVTVSS
- polyreactivity (PSR sort gate): low polyreactivity

Sequence: QVQLVESGGGLVQAGGSLRLSCAASGITFYHYAMGWYRQAPGKERELVAAISSDDNTNYADSVKGRFTISRDNEKNTVYLQMNSLNPEVTAVYYCNKRSLKNEPRYDYWGQGTQVTVSS
- polyreactivity (PSR sort gate): high polyreactivity

Sequence: QVQLVESGGGLVQAGGRLRLSCAASGRTFYGYAMGWYRQAPGKERELVASISRDGSTNYADSVNGRFTISRDNAKNTVYLQMHSLKPEDTAVYYCAADIWYYRYPIYYYSYDYWGPGTQVTVSS
- polyreactivity (PSR sort gate): low polyreactivity

Sequence: QVQLVESGGGLVQSGGSLRLSCAASGIIFNDYAMGWYRQAPGKERELVAAISGRGGRTYYADSVKGRFTISRDNAKITVYLQMNSLKPEDTAVYYCAARVLPTDYYWGQGTQVTVSS
- polyreactivity (PSR sort gate): high polyreactivity

Sequence: HVQLVESGGGLVQAGGSLRLSCAASGFTFRLYAMGWYRQAPGKERELVAAINWGGGSTRYADSVKGRFTISRDNAKNTVYLQMNSLKPEDTAVYYCAARRFAYYFQYLGGGYWGQGTQVTVSS
- polyreactivity (PSR sort gate): high polyreactivity

Sequence: QVQLVESGGGLVQAGGSLRLSCAASGSTFHGYDMGWYRQAPGKERELVAAITSSGDDTYYADSEKGRFTISLDNAKNTVYLQMNSLKPEDTAVYYCAAEYTEGYTHDYWGQGTQVTVSS
- polyreactivity (PSR sort gate): low polyreactivity

Sequence: QVQLVESGGGLVQAGGSLRLSCAASGSIFISYARGWYRQAPGKERELVAAITWSGDSTYYADSVKGRFTISRDNAKNTVYLQMNSLKPEDTAVYYCAADWYFRNQRGYYWGQGTQVTVSS
- polyreactivity (PSR sort gate): low polyreactivity

Sequence: QVQLVESGGGLVQAGGSLRLSCAASGFTFGHYAMGWYRQAPGIERELVAAISRSGGTTSYADSVKGRFTISRDNAKNTVYLQMNSLKPEDTAVYYCNKDYIWARYGGGRDYWGQGTQVTVSS
- polyreactivity (PSR sort gate): low polyreactivity

Sequence: QVQLVESGGGLVQAGGSLRLSCAASGFTFTTYVMGWSRQAPGKERELVAAISRRGTSTRYADSVKGRFTISRDNAKNTVYLQMNSLIPEDTAVYYCAADRPYSIVPYDYWGQGTQVTVSS
- polyreactivity (PSR sort gate): high polyreactivity

Sequence: QVQLVESGGGLVQAGGSLRLSCAASGSILARYAMGWYRPAPGKERELVAAISSRGGSTYYADSVKGRFTISRDNAKNTVYLEINSLKPEDTAVYSCAAYVYLQVEYDYWGHGTQVTVSS
- polyreactivity (PSR sort gate): low polyreactivity

Sequence: QVQLVESGGGLVQAGGSLRLSCAASGITFKAYAMGWYRQAPGKERELVAAINTSGARTYYADSVKGRFTISRDNAKNTVYLQMNSLKPEDTAVYYCNARLHQQEGDYWGQGTQVTVSS
- polyreactivity (PSR sort gate): low polyreactivity

Sequence: QVQLVESGGGLVQAGGSLRLSCAASGSTFVLNAMGWYRQAPGKERELVAAISSGGRTYYADSVKGRFTISRDNAKNTVYLQMNSLKPEDTAVYYCAAKPYRGGHRTLFGYWGQGTQVTVSS
- polyreactivity (PSR sort gate): high polyreactivity

Sequence: QVQLVESVGGLVQAGGSLSLSCAASVFGRYAMGWYRPAPGKERELVARIYSSGGSTHYADSVKGRFTISRDNAKNTVYLQMNSLKPEDTAVYYCATGSTRWGCYYYWGQGTQVTVSS
- polyreactivity (PSR sort gate): high polyreactivity

Sequence: QVQLVESGGGLVQAGGSLRLSCAASGSNFLDNAMGWYRQAPGKERELVAAITSSGGSTYYADSVKGRFTISRDNAKNTVYLQMNSLKPEDTAVYYCAADEWIVHEGYYSSYYYWGQGTQVTVSS
- polyreactivity (PSR sort gate): low polyreactivity

Sequence: QVQLVESGGGLVQAGGSLRLSCAASGSTLVIYAMGWYRQAPGKERELVAAISRGGTTYYADSVKGRFTISRDNAKNTVYLQMNSLKPEDTAVYYCAADARVKRYYFRKSGYWGQGTQVTVSS
- polyreactivity (PSR sort gate): high polyreactivity

Sequence: QVQLVESGGGLVQAGGSLRLSCAASGSIISGNVMGWYRQAPGKEREFVATISWRGGNTYYADSVKGRFTISRDNAKNTVYLQMNSLKPEETAVYDCATRRLYSKSWYYYWGQGTQVTVSS
- polyreactivity (PSR sort gate): high polyreactivity

Sequence: QVQLVESGGGLVQAGGTLRLSCAASGSTLYPYDMGWYRQAPGKERELVAAIDSGGSTNYADSVKGRFTISRDNAKNTVYLQMNRLKPEDTAVYYCAADASGENDYWGQGTQVTVSS
- polyreactivity (PSR sort gate): low polyreactivity

Sequence: QVQLVESGGGLVQAGGSLRLSCAASGFIFYYYAMGWYRQAPGKEREFVAGISRSGGSTYYADSVKGRFTISRDNAKNTVYLQMKSLKPEDTAVYYCAARYVQHKIYRLAQGEYWGQGTQVTVSS
- polyreactivity (PSR sort gate): high polyreactivity

Sequence: QVQLVESGGGLVQAGGSLRLSCAASGLTFSLYAMGWYRQAHGKERELVAAISWTGGSTYYADSVKGRFTISRDNAKNTVYLQMNSLKPEDTAVYYCNARYTLFARYGYDYWGQGTQVTVSS
- polyreactivity (PSR sort gate): low polyreactivity

Sequence: QVQLEESVGGLVQAGGSLRLSCAASGRTFGRYAMGWYRQAPGKERELVAGISRSGDSTHYADSVKGRFTISRDNAKKTVYLQMNSLKPEDTAVYYCNKETPTIGARKYEDWGQGTQVTVSS
- polyreactivity (PSR sort gate): low polyreactivity

Sequence: QVQLVESGGGLVQAGGSLRLSCAASGRIFAYYAMGWYRQAPGKERELVAAITRSGARTYYADSVKGRFTISRDNAKNTVYLQMNSLKPEDTAVYYCAAEGVRIGTRYDYWGQGTQVTVSS
- polyreactivity (PSR sort gate): high polyreactivity

Sequence: QVQLVESGGGLVQAGGSLRLSCAASGRTLGGYAMGWYIQATGKERELVAAITRRGGSTYYADSVKGRFTISRDNAKNTVYLQMNSLKPEDTAVYYCAARWYARSLTRFNYWGQGTQVTVSS
- polyreactivity (PSR sort gate): high polyreactivity

Sequence: QVQLVESAAGLVQAGGSLRLSCAASGRIFRYNTMGWYRQAPGKESELVAAITSGVRTNYADSVKGRFTISRDNAKNTVYLQMNSLKPEDTAVYYCAADPYWFFPNYDSWGQGTQVTVSS
- polyreactivity (PSR sort gate): low polyreactivity

Sequence: QDQLVESGGVLVQAGGSLRLSCAASGSTFYYYAMGWYRQAPRKEREFVSSISSRRTSTYYADSVKGRLTISRDNAKNNVYLQMNSLKREDTAVYYCADTQYRSDGWRYDYWGQGTQVTVSS
- polyreactivity (PSR sort gate): high polyreactivity

Sequence: QVQRVESRGGLVQAGGSLRLSCAASGSTFHRYVKGWSRTATGKERELVSVINSTGASTYYADSVKWRYTLSRDNAKNSVYLQMNSLKPEDTAVYYCARVTRRGPGYTTLYSRYDYWGQGTQVTVSS
- polyreactivity (PSR sort gate): low polyreactivity

Sequence: QVQLVESGGGLVQAGGSLRLSCAASGRIFYRYGMGRYRPAHGKVRELVASITRGGSTYYADSVKWRFTISRDNAKNTVYLQMNSLKPEDTAVYDSNRDIGGTSVLDDYWGQGTQVTVSS
- polyreactivity (PSR sort gate): low polyreactivity

Sequence: QVQLVESGGGLVQAGGSLRLSCAASGFIRTAYAMGWYRQAPGKERELVAAIDWIGGSTYYADSVKGRFTISRDNAKNTVYLQMNSLKPEDTAVYYCAAVRYYWGQGTQVTVSS
- polyreactivity (PSR sort gate): low polyreactivity

Sequence: QVQLVESGGGLVQAGGSLRLSCAASGRIFSDNAMGWYRQAPGKERELVAAITDRGGSTYYADSVKGRFTISRDNAQNTVYLQMNSLKPEDTAVYYCAARNTPAQLDYWGQGTQVTVSS
- polyreactivity (PSR sort gate): low polyreactivity

Sequence: QVQLVDSGGGLDQAGGSLRLSCAAAGSIFYSYAMGWYSQATGKDSELVADISSDGSTNYADSVKGRFTISRDNAKNTVYVQINSLKPEDTAVYYCAKKPSSARYVTIGFDEWGHGTQVTVSS
- polyreactivity (PSR sort gate): low polyreactivity

Sequence: QVQLVESGGGLVQAGGSLRLSCAASGFTFPRYAMGWYRQAPGKERELVAAITSGDRTYYADSVKGRFTISRDNAKNTVYLQMNSLKPEDTAVYYCATSSRYRYWHRYDYWGLGTQVTVSS
- polyreactivity (PSR sort gate): high polyreactivity

Sequence: QDQLVESGGGLVQAGGSLRLSCAASGRIFVYYVMGWYRQAPGKERELVAAITYSGGSTYYADSVKVRFTISRDNAKNTVYLQMNSLKPEDTAVYACNKVDAFGIVRLYYWGQGTQVTVSS
- polyreactivity (PSR sort gate): low polyreactivity

Sequence: QVQLVESGGGLVQAGGSLRLSCAASGRIFAWYAMGWYRQAPGKERELVAAISDSGGSTYYADSVKGRFTISRDNAKNTVYLQMNSLKPEDTAVYYCAADQVVYSAYWSDHYDYWGQGTQVTVSS
- polyreactivity (PSR sort gate): low polyreactivity

Sequence: QVQLVESGGGLVQAGGSLRLSCAASGRTFPSYTMGWSRQAPGKERELVAAITWTGGSTYYADSVKGRFTISRDNAKNTVYLQMISLKPEDTAVYYCADYDYWGHGTQVTVSS
- polyreactivity (PSR sort gate): low polyreactivity
